Reference: the supplement of paper PMC10724198
± gives the standard deviation of the averaged measurements.

System: Saccharomyces cerevisiae
Assay: protein stability index of tFT-peptide fusion (C-terminal peptide) (PSI (0-1 scale)); higher = more stable (slower turnover)
Conditions: genetic background: wild type; temperature: 30 C
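Also: PSI is a weighted mean of sequencing reads over stability bins, variants kept only with over 10 reads, mCherry proximal and sfGFP distal, peptide attached via GGGS linker.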

| Sequence | protein stability index |
| --- | --- |
| QWGGEGWILGGV | 0.698 ± 0.031 |
| ACKWGVNKSTLG | 0.703 ± 0.043 |
| GGQGKWPGTPLL | 0.738 ± 0.022 |
| VLRGMSVFGLGE | 0.74 ± 0.14 |
| KAVSRQSEATPV | 0.76 ± 0.093 |
| PLYPPLPTSLSS | 0.769 ± 0.027 |
| PYPSPLPPAPTP | 0.748 ± 0.015 |
| LYSFSIPPSLGS | 0.735 ± 0.085 |
| YSGNPGVRGFHG | 0.69 ± 0.073 |
| SCWHRNRKIILD | 0.573 ± 0.056 |
| AAGPILAFSVAC | 0.638 ± 0.039 |
| SVFECKYNTLGR | 0.671 ± 0.017 |
| VRITRPFKAPTP | 0.711 ± 0.0056 |
| WSLSSHCMLMVE | 0.5394 ± 0.0051 |
| PPPSPLANPPSP | 0.728 ± 0.092 |
| VPSVCPFLSVLL | 0.647 ± 0.035 |
| PVVSRPSNFRWV | 0.663 ± 0.02 |
| NGYASLGGEPKR | 0.7576 ± 0.0041 |
| RAVESPDKSSCE | 0.664 ± 0.11 |
| GCRCWGVRVGCV | 0.5407 ± 0.003 |
| GFFGDFIVFDFS | 0.777 ± 0.022 |
| DGWTLCRVGCVG | 0.652 ± 0.061 |
| TPPPSPPQPLPP | 0.642 ± 0.043 |
| LPSARLPPPPPR | 0.683 ± 0.021 |
| KQDTRRHIHTTK | 0.735 ± 0.092 |
| PEPMYHNSLFRP | 0.737 ± 0.018 |

| Sequence | protein stability index |
| --- | --- |
| VRSYLARFEVYV | 0.531 ± 0.019 |
| PPLPPPPPDFSP | 0.761 ± 0.18 |
| RVAWAGGGAAGS | 0.667 ± 0.065 |
| GLGQGVGGPWAV | 0.678 ± 0.041 |
| TIIGLVSANEYL | 0.582 ± 0.1 |
| EFPRHDLDCSLV | 0.7095 ± 0.00082 |
| GGGVWQWERGRG | 0.811 ± 0.14 |
| FTSGESVCGGRV | 0.698 ± 0.0026 |
| PLTRPTDNNPSN | 0.774 ± 0.081 |
| KGMVEESIIKRA | 0.62084 ± 0.00038 |
| LSHSSPLFSPLV | 0.72 ± 0.0077 |
| EGDTPFKNRVKF | 0.716 ± 0.061 |
| LIAVASSGWKQS | 0.7145 ± 0.0023 |
| CPSIVCSPTDPM | 0.679 ± 0.061 |
| EITRRAQHWKAK | 0.708 ± 0.018 |
| TGSAIVPHQVPS | 0.653 ± 0.015 |
| SSNLVDTCSPIG | 0.778 ± 0.081 |
| PFPHPPPPSPTP | 0.687 ± 0.021 |
| PFSWRPLSSPTA | 0.757 ± 0.004 |
| ATVARNTDTSSP | 0.679 ± 0.017 |
| RICIGSLHGASI | 0.576 ± 0.019 |
| FSGWVFAPFFFF | 0.644 ± 0.048 |
| PGASAKPHSSAN | 0.712 ± 0.031 |
| GVGFGWGGVWME | 0.691 ± 0.0073 |
| SPSPPPRRYLPL | 0.757 ± 0.073 |
| RIQIKIKRTKNK | 0.638 ± 0.11 |

| Sequence | protein stability index |
| --- | --- |
| LSATGSCSPRRG | 0.693 ± 0.014 |
| TVGKGCGGAEGG | 0.6439 ± 0.0029 |
| CGYAAGGELLQD | 0.705 ± 0.012 |
| PPRPSLIPPLPS | 0.61 ± 0.016 |
| PSWPRRSSPLAI | 0.73 ± 0.013 |
| PRSAPPVPPIYP | 0.6502 ± 0.0053 |
| FSSHGFSSFLLL | 0.691 ± 0.084 |
| QLRDNQNTLLQE | 0.7138 ± 0.006 |
| PASPPPAPRPPP | 0.65 ± 0.0081 |
| HLPLLLFHPPLH | 0.637 ± 0.0051 |
| SVPPRPLALSLL | 0.76 ± 0.026 |
| GSGVFEASAWGA | 0.679 ± 0.0069 |
| VLVAWWGLGGGV | 0.637 ± 0.069 |
| KQKRKENIHIIK | 0.776 ± 0.033 |
| APTQANLRSSRS | 0.73 ± 0.022 |
| PLHPLTLPHLPT | 0.665 ± 0.092 |
| HPSPTAPPSASN | 0.66 ± 0.022 |
| YYRKATFSPMVQ | 0.684 ± 0.072 |
| CPLSPLPSSAAP | 0.681 ± 0.042 |
| LAPNPGVLFCGI | 0.656 ± 0.044 |
| RIFFTCDSFLCV | 0.611 ± 0.04 |
| LPLPPPPPCCSF | 0.701 ± 0.015 |
| RPLCRSFPPASL | 0.788 ± 0.058 |
| LPTPSQYFFPPP | 0.736 ± 0.018 |
| PVRFVDGFLSPI | 0.713 ± 0.03 |
| GASGLRIIQVSW | 0.671 ± 0.0098 |

| Sequence | protein stability index |
| --- | --- |
| PPPPPSSPPLPP | 0.64 ± 0.083 |
| PPCPPPPAPPPP | 0.687 ± 0.044 |
| QQVRHNVKRVVL | 0.7222 ± 0.0025 |
| LRPPPAAHSLGP | 0.645 ± 0.012 |
| IINKKANQKKKE | 0.68 ± 0.032 |
| WELPNRANDLSH | 0.769 ± 0.11 |
| RGRDTETFSDNS | 0.6901 ± 0.0054 |
| LLLVGGVSSWTV | 0.67 ± 0.014 |
| GNGVNLEYDKRK | 0.721 ± 0.059 |
| KKSNEKERATQQ | 0.708 ± 0.046 |
| KTGATAIKKINK | 0.695 ± 0.039 |
| CFGVSVYIGLGV | 0.588 ± 0.011 |
| RCNFHILEIRKY | 0.667 ± 0.0057 |
| RRNGVVGRLGGV | 0.678 ± 0.032 |
| IRQPIPTKVHRL | 0.744 ± 0.045 |
| PLPPPPRPRLPL | 0.764 ± 0.047 |
| FSGLNWLLCHSK | 0.704 ± 0.015 |
| AFLLSSIRPSLR | 0.7486 ± 0.005 |
| GGVRGRRLLGGR | 0.7 ± 0.046 |
| SFLFDSPYFVAI | 0.699 ± 0.018 |
| GLERAVGWAVCG | 0.622 ± 0.015 |
| LGRVLSFGHAFV | 0.698 ± 0.021 |
| GGVWFSCSSAFS | 0.871 ± 0.075 |
